Our source for the binding signal values is US20240352434, “COMPOSITIONS COMPRISING A VARIANT CAS12I3 POLYPEPTIDE AND USES THEREOF” (Arbor Biotechnologies, Inc., published 2024).

In one data set the target is T1, Cas12i3 N711R (Unidentified, N711R).
T1 chain: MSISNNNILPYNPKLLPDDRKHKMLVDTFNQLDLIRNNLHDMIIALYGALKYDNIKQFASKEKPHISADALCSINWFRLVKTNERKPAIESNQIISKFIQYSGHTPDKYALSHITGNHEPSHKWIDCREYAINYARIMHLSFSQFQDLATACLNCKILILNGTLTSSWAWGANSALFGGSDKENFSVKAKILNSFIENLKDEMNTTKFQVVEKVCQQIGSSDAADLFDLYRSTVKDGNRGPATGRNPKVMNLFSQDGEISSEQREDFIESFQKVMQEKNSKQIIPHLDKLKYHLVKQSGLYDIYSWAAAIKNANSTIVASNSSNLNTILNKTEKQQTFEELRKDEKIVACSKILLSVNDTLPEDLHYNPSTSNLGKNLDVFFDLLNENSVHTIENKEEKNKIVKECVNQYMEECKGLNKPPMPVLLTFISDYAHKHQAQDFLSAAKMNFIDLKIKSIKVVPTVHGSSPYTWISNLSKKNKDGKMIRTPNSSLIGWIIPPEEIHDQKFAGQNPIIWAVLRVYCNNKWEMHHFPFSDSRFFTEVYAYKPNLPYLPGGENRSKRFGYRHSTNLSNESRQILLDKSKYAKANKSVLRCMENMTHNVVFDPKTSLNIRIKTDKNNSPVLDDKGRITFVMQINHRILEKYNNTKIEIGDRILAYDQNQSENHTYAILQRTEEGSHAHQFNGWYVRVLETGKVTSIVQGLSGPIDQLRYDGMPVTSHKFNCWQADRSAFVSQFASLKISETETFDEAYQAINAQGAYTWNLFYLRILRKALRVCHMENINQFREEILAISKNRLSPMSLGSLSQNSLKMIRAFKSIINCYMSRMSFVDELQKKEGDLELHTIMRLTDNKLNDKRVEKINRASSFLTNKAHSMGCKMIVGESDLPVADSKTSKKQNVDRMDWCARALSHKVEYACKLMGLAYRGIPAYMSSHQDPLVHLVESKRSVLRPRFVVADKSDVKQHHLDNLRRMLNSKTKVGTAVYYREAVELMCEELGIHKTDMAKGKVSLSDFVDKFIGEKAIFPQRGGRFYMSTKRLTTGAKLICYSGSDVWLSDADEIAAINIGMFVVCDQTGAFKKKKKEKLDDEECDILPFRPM
Put plainly: cell_activity; fold change in % indels, HEK293T; PAM not stated in example. In short, it runs like this:
(§1)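 HEK293T cells lipofected with Lipofectamine 2000 (crRNA omitted in negative controls). Harvested 72 h post-transfection and lysed in QuickExtract. Target loci amplified by two-round PCR and sequenced on NextSeq (150 cycles) to quantify % indels.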

Another data set deals with T2, Cas12i3 S536R (Unidentified, S536R).
T2 chain: T1 chain with S536R, R711N
The data set is described as above. In short, it runs like this:
as §1

Where a chain is given by its changes, count along the chain named.

B1: EMX1_T5 crRNA ; EMX1_T5 target (ssRNA ; dsDNA)
RNA: AUAGUGUGUCCUUAGUUGACAUUAUUAUUCCCAUAGGGAAGG
DNA 1: TATTATTCCCATAGGGAAGG
DNA 2: CCTTCCCTATGGGAATAATA
Turning to B1, the binding signal with Cas12i3 N711R was 1.56 fold of wild-type; with Cas12i3 S536R, 1.27 fold of wild-type.

B2: VEGFA_T2 crRNA ; VEGFA_T2 target (ssRNA ; dsDNA)
RNA: AUAGUGUGUCCUUAGUUGACAUAAUCCUCCACCAGUCAUGGU
DNA 1: AATCCTCCACCAGTCATGGT
DNA 2: ACCATGACTGGTGGAGGATT
Take B2: the binding signal with Cas12i3 N711R was 2.17 fold of wild-type; in the data set with Cas12i3 S536R it was 1.8 fold of wild-type.

B3: AAVS1_T3 crRNA ; AAVS1_T3 target (ssRNA ; dsDNA)
RNA: AUAGUGUGUCCUUAGUUGACAUGUGAGAAUGGUGCGUCCUAG
DNA 1: GTGAGAATGGTGCGTCCTAG
DNA 2: CTAGGACGCACCATTCTCAC
Regarding B3, the binding signal with Cas12i3 N711R was 2.79 fold of wild-type; in the data set with Cas12i3 S536R, 2.16 fold of wild-type.
